B1: VH H35Y (73BIT) (Fab, V domains shown)
VH: EVQLVQSGAEVKKPGASVKVSCKASGYTFTSYWMYWVRQAPGQGLEWMGRIDPQSGGIKYAQKFQGRATLTVDTSTSTAYMELSRLRSDDTAVYYCARWDYGGYFDVWGQGTLVTVSS
VL: DIQMTQSPSSLSASVGDRVTITCRASQDITNYLNWYQQKPGKAVKLLIYYTSRLHSGVPSRFSGSGSGTDYTLTISSLQPEDFATYFCQQGDTLPWTFGQGTKLEIKR
B2: VH P52aY (78BIT) (Fab, V domains shown)
VH: EVQLVQSGAEVKKPGASVKVSCKASGYTFTSYWMHWVRQAPGQGLEWMGRIDYQSGGIKYAQKFQGRATLTVDTSTSTAYMELSRLRSDDTAVYYCARWDYGGYFDVWGQGTLVTVSS
VL: DIQMTQSPSSLSASVGDRVTITCRASQDITNYLNWYQQKPGKAVKLLIYYTSRLHSGVPSRFSGSGSGTDYTLTISSLQPEDFATYFCQQGDTLPWTFGQGTKLEIKR
B3: VH R50Y (75BIT) (Fab, V domains shown)
VH: EVQLVQSGAEVKKPGASVKVSCKASGYTFTSYWMHWVRQAPGQGLEWMGYIDPQSGGIKYAQKFQGRATLTVDTSTSTAYMELSRLRSDDTAVYYCARWDYGGYFDVWGQGTLVTVSS
VL: DIQMTQSPSSLSASVGDRVTITCRASQDITNYLNWYQQKPGKAVKLLIYYTSRLHSGVPSRFSGSGSGTDYTLTISSLQPEDFATYFCQQGDTLPWTFGQGTKLEIKR
notes: also called VH RSOY (75BIT)
B4: VH K58Y (84BIT) (Fab, V domains shown)
VH: EVQLVQSGAEVKKPGASVKVSCKASGYTFTSYWMHWVRQAPGQGLEWMGRIDPQSGGIYYAQKFQGRATLTVDTSTSTAYMELSRLRSDDTAVYYCARWDYGGYFDVWGQGTLVTVSS
VL: DIQMTQSPSSLSASVGDRVTITCRASQDITNYLNWYQQKPGKAVKLLIYYTSRLHSGVPSRFSGSGSGTDYTLTISSLQPEDFATYFCQQGDTLPWTFGQGTKLEIKR
B5: VL A25Y (39BIT) (Fab, V domains shown)
VH: EVQLVQSGAEVKKPGASVKVSCKASGYTFTSYWMHWVRQAPGQGLEWMGRIDPQSGGIKYAQKFQGRATLTVDTSTSTAYMELSRLRSDDTAVYYCARWDYGGYFDVWGQGTLVTVSS
VL: DIQMTQSPSSLSASVGDRVTITCRYSQDITNYLNWYQQKPGKAVKLLIYYTSRLHSGVPSRFSGSGSGTDYTLTISSLQPEDFATYFCQQGDTLPWTFGQGTKLEIKR
B6: VH I51Y (76BIT) (Fab, V domains shown)
VH: EVQLVQSGAEVKKPGASVKVSCKASGYTFTSYWMHWVRQAPGQGLEWMGRYDPQSGGIKYAQKFQGRATLTVDTSTSTAYMELSRLRSDDTAVYYCARWDYGGYFDVWGQGTLVTVSS
VL: DIQMTQSPSSLSASVGDRVTITCRASQDITNYLNWYQQKPGKAVKLLIYYTSRLHSGVPSRFSGSGSGTDYTLTISSLQPEDFATYFCQQGDTLPWTFGQGTKLEIKR
B7: VH M34Y (72BIT) (Fab, V domains shown)
VH: EVQLVQSGAEVKKPGASVKVSCKASGYTFTSYWYHWVRQAPGQGLEWMGRIDPQSGGIKYAQKFQGRATLTVDTSTSTAYMELSRLRSDDTAVYYCARWDYGGYFDVWGQGTLVTVSS
VL: DIQMTQSPSSLSASVGDRVTITCRASQDITNYLNWYQQKPGKAVKLLIYYTSRLHSGVPSRFSGSGSGTDYTLTISSLQPEDFATYFCQQGDTLPWTFGQGTKLEIKR
B8: VH T30Y (69BIT) (Fab, V domains shown)
VH: EVQLVQSGAEVKKPGASVKVSCKASGYTFYSYWMHWVRQAPGQGLEWMGRIDPQSGGIKYAQKFQGRATLTVDTSTSTAYMELSRLRSDDTAVYYCARWDYGGYFDVWGQGTLVTVSS
VL: DIQMTQSPSSLSASVGDRVTITCRASQDITNYLNWYQQKPGKAVKLLIYYTSRLHSGVPSRFSGSGSGTDYTLTISSLQPEDFATYFCQQGDTLPWTFGQGTKLEIKR
B9: VH S54Y (80BIT) (Fab, V domains shown)
VH: EVQLVQSGAEVKKPGASVKVSCKASGYTFTSYWMHWVRQAPGQGLEWMGRIDPQYGGIKYAQKFQGRATLTVDTSTSTAYMELSRLRSDDTAVYYCARWDYGGYFDVWGQGTLVTVSS
VL: DIQMTQSPSSLSASVGDRVTITCRASQDITNYLNWYQQKPGKAVKLLIYYTSRLHSGVPSRFSGSGSGTDYTLTISSLQPEDFATYFCQQGDTLPWTFGQGTKLEIKR
B10: VH W95Y (88BIT) (Fab, V domains shown)
VH: EVQLVQSGAEVKKPGASVKVSCKASGYTFTSYWMHWVRQAPGQGLEWMGRIDPQSGGIKYAQKFQGRATLTVDTSTSTAYMELSRLRSDDTAVYYCARYDYGGYFDVWGQGTLVTVSS
VL: DIQMTQSPSSLSASVGDRVTITCRASQDITNYLNWYQQKPGKAVKLLIYYTSRLHSGVPSRFSGSGSGTDYTLTISSLQPEDFATYFCQQGDTLPWTFGQGTKLEIKR
B11: VL D28Y (42BIT) (Fab, V domains shown)
VH: EVQLVQSGAEVKKPGASVKVSCKASGYTFTSYWMHWVRQAPGQGLEWMGRIDPQSGGIKYAQKFQGRATLTVDTSTSTAYMELSRLRSDDTAVYYCARWDYGGYFDVWGQGTLVTVSS
VL: DIQMTQSPSSLSASVGDRVTITCRASQYITNYLNWYQQKPGKAVKLLIYYTSRLHSGVPSRFSGSGSGTDYTLTISSLQPEDFATYFCQQGDTLPWTFGQGTKLEIKR
B12: VH Q53Y (79BIT) (Fab, V domains shown)
VH: EVQLVQSGAEVKKPGASVKVSCKASGYTFTSYWMHWVRQAPGQGLEWMGRIDPYSGGIKYAQKFQGRATLTVDTSTSTAYMELSRLRSDDTAVYYCARWDYGGYFDVWGQGTLVTVSS
VL: DIQMTQSPSSLSASVGDRVTITCRASQDITNYLNWYQQKPGKAVKLLIYYTSRLHSGVPSRFSGSGSGTDYTLTISSLQPEDFATYFCQQGDTLPWTFGQGTKLEIKR
B13: VH S31Y (70BIT) (Fab, V domains shown)
VH: EVQLVQSGAEVKKPGASVKVSCKASGYTFTYYWMHWVRQAPGQGLEWMGRIDPQSGGIKYAQKFQGRATLTVDTSTSTAYMELSRLRSDDTAVYYCARWDYGGYFDVWGQGTLVTVSS
VL: DIQMTQSPSSLSASVGDRVTITCRASQDITNYLNWYQQKPGKAVKLLIYYTSRLHSGVPSRFSGSGSGTDYTLTISSLQPEDFATYFCQQGDTLPWTFGQGTKLEIKR
B14: VH I57Y (83BIT) (Fab, V domains shown)
VH: EVQLVQSGAEVKKPGASVKVSCKASGYTFTSYWMHWVRQAPGQGLEWMGRIDPQSGGYKYAQKFQGRATLTVDTSTSTAYMELSRLRSDDTAVYYCARWDYGGYFDVWGQGTLVTVSS
VL: DIQMTQSPSSLSASVGDRVTITCRASQDITNYLNWYQQKPGKAVKLLIYYTSRLHSGVPSRFSGSGSGTDYTLTISSLQPEDFATYFCQQGDTLPWTFGQGTKLEIKR
B15: VH T28Y (67BIT) (Fab, V domains shown)
VH: EVQLVQSGAEVKKPGASVKVSCKASGYYFTSYWMHWVRQAPGQGLEWMGRIDPQSGGIKYAQKFQGRATLTVDTSTSTAYMELSRLRSDDTAVYYCARWDYGGYFDVWGQGTLVTVSS
VL: DIQMTQSPSSLSASVGDRVTITCRASQDITNYLNWYQQKPGKAVKLLIYYTSRLHSGVPSRFSGSGSGTDYTLTISSLQPEDFATYFCQQGDTLPWTFGQGTKLEIKR
B16: VH W33Y (71BIT) (Fab, V domains shown)
VH: EVQLVQSGAEVKKPGASVKVSCKASGYTFTSYYMHWVRQAPGQGLEWMGRIDPQSGGIKYAQKFQGRATLTVDTSTSTAYMELSRLRSDDTAVYYCARWDYGGYFDVWGQGTLVTVSS
VL: DIQMTQSPSSLSASVGDRVTITCRASQDITNYLNWYQQKPGKAVKLLIYYTSRLHSGVPSRFSGSGSGTDYTLTISSLQPEDFATYFCQQGDTLPWTFGQGTKLEIKR

Consider 16 molecules from patent publication US20230272056A1 (Merck Sharp & Dohme, published 2023).

As usually defined, the koff is a measure of how fast the partners let go of each other.

T1 sequence (chain, as listed by the source limits assumed): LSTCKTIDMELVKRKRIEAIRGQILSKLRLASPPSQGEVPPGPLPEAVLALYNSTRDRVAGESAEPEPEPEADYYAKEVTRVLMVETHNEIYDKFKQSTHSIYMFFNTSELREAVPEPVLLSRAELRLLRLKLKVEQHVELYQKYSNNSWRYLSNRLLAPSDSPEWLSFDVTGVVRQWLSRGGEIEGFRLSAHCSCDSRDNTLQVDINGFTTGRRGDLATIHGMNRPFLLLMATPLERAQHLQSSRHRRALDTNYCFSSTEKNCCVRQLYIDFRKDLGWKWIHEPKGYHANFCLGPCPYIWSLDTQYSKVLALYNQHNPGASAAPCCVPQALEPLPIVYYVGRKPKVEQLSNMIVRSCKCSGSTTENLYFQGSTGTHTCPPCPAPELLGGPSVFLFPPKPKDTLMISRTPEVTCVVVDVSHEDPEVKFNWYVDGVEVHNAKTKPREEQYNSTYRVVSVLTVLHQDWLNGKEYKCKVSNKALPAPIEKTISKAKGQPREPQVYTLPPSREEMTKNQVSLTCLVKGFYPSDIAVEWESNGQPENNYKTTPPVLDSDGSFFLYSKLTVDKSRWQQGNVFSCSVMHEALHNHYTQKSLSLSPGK

This test concerns the target T1, human LAP-TGFB1 Fc fusion (human).
T1 construct: also called human LAP-TGFβ1-Fc; human LAP-TGFβ-Fc isoform 1
As to the kind of experiment: BLI off-rate screen. As for the experimental part:
The Fab mutants including a positive control, 20E6 Fab, and a negative control Fab (Molecular Innovations, catalog HU-FAB-4510) were diluted to 200 nM in assay buffer and loaded to FAB2G sensors for 180 seconds followed by a one-hour incubation at room temperature in assay buffer to equilibrate the tips. The Fab loaded sensors were assessed for binding with 100 nM human LAP-TGFβ for 180 seconds followed by a 180 second dissociation phase in assay buffer on a ForteBio HTX (software version 9.0.0.66). Non-specific binding to the negative control Fab was subtracted and the binding sensorgrams were aligned to the start of the association phase on the X and Y axis. The Fab binding was fit with the 1:1 binding model, dissociation phase only, with local fitting using ForteBio Data Analysis 9.0 software.
Twenty-three variants containing a single tyrosine substitution in the light chain CDRs (at one of amino acid positions 24-31, 33, 34, 51-56, and 89-95 according to Kabat numbering scheme) and 21 similar heavy chain CDR variants (at amino acids positions 28-31, 33-35, 50-58 including 52a, 95, 96, 98, and 99 according to Kabat numbering scheme) were generated according to FIG. 1 and listed in Table 6 and their interactions with human LAP-TGFb1 were analyzed by ForteBio interferometry. […] In those sequences the VL is correct, even though these sequences are from the heavy chain. Thus, the VL_X ##Y refers to the position of the tyrosine mutation within the antibody, regardless of whether the sequence is a heavy or light chain.
Consider B1, for which the Binding response was 0.334 nm, the Fold change was 0.9 fold and the koff came to 0.0471 s⁻¹.
The matching figures for B2: 0.566 nm, 0.9 fold and 0.0454 s⁻¹.
With B3, the Binding response was 0.324 nm, the Fold change is 0.9 fold and the koff is 0.0445 s⁻¹.
In the same order, the values of B4 are 0.339 nm, 1.3 fold and 0.0327 s⁻¹.
As to B5, the Binding response worked out at 0.043 nm and the binding result is “no binding (tested: 100 nM antigen)”.
B6 came in with a Binding response of 0.6 nm, a Fold change of 1.1 fold and a koff of 0.0379 s⁻¹.
The matching figures for B7: 0.623 nm, 1 fold and 0.0414 s⁻¹.
The matching figures for B8: 0.372 nm, 1.2 fold and 0.0365 s⁻¹.
In the same order, the values of B9 are 0.588 nm, 1 fold and 0.0406 s⁻¹.
Molecule B10 yielded a Binding response of 0.638 nm, a Fold change of 1 fold and a dissociation rate constant (koff) of 0.0425 s⁻¹.
The matching figures for B11: 0.207 nm, 1.3 fold and 0.0318 s⁻¹.
In the case of B12, the Binding response was determined as 0.625 nm, the Fold change is 1 fold and the koff was 0.0416 s⁻¹.
Take B13: the Binding response turned out to be 0.696 nm, the Fold change turned out to be 1.2 fold and the koff stood at 0.0361 s⁻¹.
In the same order, the values of B14 are 0.555 nm, 1 fold and 0.043 s⁻¹.
In the same order, the values of B15 are 0.326 nm, 1.2 fold and 0.0343 s⁻¹.
As to B16, the Binding response came out at 0.77 nm, the Fold change was 1.8 fold and the koff came to 0.023 s⁻¹.
